The source of these data is publication PMC12432892, “Therapeutic applications of interface-mimicking peptides for targeting the SARS-CoV-2 NSP12-NSP8 RdRp complex” (Molecular Therapy, 2025).

This assay deals with SARS-CoV-2 NSP12 (SARS-CoV-2), P0DTD1.

B1: N8-Pepα (peptide)
chain: NDALNNIINNARDGCVPLNIIPLTTA
modifications: not checked
With B1, the IC50 of inhibition of SARS-CoV-2 RdRp activity in the cell-based minigenome (luciferase) assay; pair blocked: NSP12-NSP8 was found to be 8 µM.
